In the supplement of paper PMC7877785:
± gives the uncertainty stated by the source.

Assay: self-splicing fitness, log relative to wild type (ln ratio); higher = more splicing; Tetrahymena group I intron in knt gene, E. coli kanamycin selection, DiMSum; sequences stand for … in CUCUCU…GGAGGGAAAAGUUAUCAGGCAUGCACCUGGUAGCUAGUCUUUAAACCAAUAGAUUGCAUCGGUUUAAAAGGCAAGACCGUCAAAUUGCGGGAAAGGGGUCAACAGCCGUUCAGUACCAAGUCUCAGGGGAAACUUUGAGAUGGCCUUGCAAAGGGUAUGGUAAUAAGCUGACGGACAUGGUCCUAACCACGCAGCCAAGUCCUAAGUCAACAGAUCUUCUGUUGAUAUGGAUGCAGUUCACAGACUAAAUGUCGGUCGGGGAAGAUGUAUUCUUCUCAUAAGAUAUAGUCGGACCUCUCCUUAAUGGGAGCUAGCGGAUGAAGUGAUGCAACACUGGAGCCGCUGGGAACUAAUUUGUAUGCGAAAGUAUAUUGAUUAGUUUUGGAGUACUCGUGGUCG
Outline: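 A randomised library covering all eight P1ex-region intron nucleotides was built with the intron in the knt kanamycin-resistance gene on pET-22b(+) and held in E. coli BL21(DE3). Cells were grown overnight at 37°C or 30°C on LB agar, with or without 25 μg/mL kanamycin, plus 100 μg/mL carbenicillin, 50 μM IPTG and 0.2% rhamnose, and pooled colonies were amplicon-sequenced on an Illumina HiSeq 2500. DiMSum fitness is the error-weighted combination of wild-type-normalised replicate fold changes, kanamycin versus none.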

Sequence | self-splicing fitness (ln) (30 °C) | self-splicing fitness (ln) (37 °C)
CCUCAGCAAUAUUACGUAUG | -1.75 ± 0.075 | -0.495 ± 0.079
CCUCAGCAAUAUUACGUCCU | -4.39 ± 0.31 | -2.68 ± 0.3
CCUCAGCAAUAUUACGUGUG | -1.4 ± 0.061 | -0.812 ± 0.062
CCUCAGCAAUAUUACGUUGU | -4.98 ± 0.23 | -2.52 ± 0.13
CCUCAGCAAUAUUACGUUUU | -4.52 ± 0.27 | -3.03 ± 0.17
CCUGAGCAAUAUUACGAAAA | -3.64 ± 0.35 | -2.52 ± 0.37
CCUGAGCAAUAUUACGAACC | -3.35 ± 0.3 | 
CCUGAGCAAUAUUACGACUG | -1.38 ± 0.16 | -1.25 ± 0.19
CCUGAGCAAUAUUACGAGCG | -2.57 ± 0.14 | -0.727 ± 0.14
CCUGAGCAAUAUUACGAGGG | -3.48 ± 0.19 | -2.22 ± 0.23
CCUGAGCAAUAUUACGAGUA | -2.98 ± 0.21 | -3.03 ± 0.43
CCUGAGCAAUAUUACGAUCU | -4.01 ± 0.39 | 
CCUGAGCAAUAUUACGAUUG | -2.48 ± 0.17 | -2.83 ± 0.27
CCUGAGCAAUAUUACGCAAA | -2.19 ± 0.26 | -2.42 ± 0.28
CCUGAGCAAUAUUACGCAGG | -2.64 ± 0.27 | -3.36 ± 0.42
CCUGAGCAAUAUUACGCAUA | -3.03 ± 0.32 | -2.83 ± 0.47
CCUGAGCAAUAUUACGCCGA | -3.1 ± 0.39 | -3.2 ± 0.4
CCUGAGCAAUAUUACGCGCU | -4.19 ± 0.39 | -2.1 ± 0.24
CCUGAGCAAUAUUACGCGUG | -3.05 ± 0.19 | -2.82 ± 0.22
CCUGAGCAAUAUUACGCUUU | -1.94 ± 0.17 | -3.14 ± 0.28
CCUGAGCAAUAUUACGGAGC | -1.59 ± 0.47 | -1.9 ± 0.38
CCUGAGCAAUAUUACGGGAC | -4.19 ± 0.46 | -2.08 ± 0.27
CCUGAGCAAUAUUACGGGAG | -4.51 ± 0.27 | -2.65 ± 0.2

Sequence | self-splicing fitness (ln) (30 °C) | self-splicing fitness (ln) (37 °C)
CCUGAGCAAUAUUACGGGGC | -3.49 ± 0.28 | 
CCUGAGCAAUAUUACGGUGC | -2.51 ± 0.25 | -2.15 ± 0.43
CCUGAGCAAUAUUACGUAAA |  | -2.49 ± 0.33
CCUGAGCAAUAUUACGUAUU | -2.38 ± 0.16 | -2.98 ± 0.21
CCUGAGCAAUAUUACGUCAC |  | -1.54 ± 0.31
CCUGAGCAAUAUUACGUCAG | -2.64 ± 0.099 | -2.19 ± 0.099
CCUGAGCAAUAUUACGUCUC |  | -3.42 ± 0.37
CCUGAGCAAUAUUACGUGAU | -3.68 ± 0.24 | -3.54 ± 0.33
CCUGAGCAAUAUUACGUGGA | -3.5 ± 0.2 | -2.03 ± 0.18
CCUGAGCAAUAUUACGUGUC | -4.13 ± 0.21 | -2 ± 0.13
CCUGAGCAAUAUUACGUUCA | -3.2 ± 0.43 | -2.59 ± 0.32
CCUGAGCAAUAUUACGUUCC | -2.52 ± 0.28 | -2.5 ± 0.42
CCUGAGCAAUAUUACGUUCG | -3.43 ± 0.26 | -2.87 ± 0.38
CCUUAGCAAUAUUACGACGC | -3.94 ± 0.33 | -2.51 ± 0.29
CCUUAGCAAUAUUACGAGGA | -2.8 ± 0.25 | -1.69 ± 0.27
CCUUAGCAAUAUUACGAGGC | -4.12 ± 0.29 | -1.6 ± 0.27
CCUUAGCAAUAUUACGCUAA | -3.35 ± 0.4 | -1.97 ± 0.2
CCUUAGCAAUAUUACGCUCC |  | -1.44 ± 0.5
CCUUAGCAAUAUUACGCUCU | -3.8 ± 0.43 | -0.731 ± 0.38
CCUUAGCAAUAUUACGCUGU | -3.42 ± 0.2 | -2.49 ± 0.19
CCUUAGCAAUAUUACGGACC | -2.33 ± 0.3 | 
CCUUAGCAAUAUUACGGAGA | -3.46 ± 0.37 | -2.41 ± 0.42
